B1: EcTai4 (type VI amidase immunity 4 from Enterobacter cloacae), residues 19-117 (domain or fragment)
chain: QTLPDISTFSQQQIFENWVQNRCIGKIADSKSLKEDADASAAAWLEASNLPAENFEKADEVIVSLLKQKVGGTEPGHYQILKCTLIANSDAIRPLKSSK
notes: Tai4, type VI amidase immunity 4, E. cloacae, residues 19-117 without the N-terminal 18-residue signal peptide, amplified from genomic DNA; pET21a; Se-Met-labelled protein was used for the crystal structure; The construct of the His-EcTai4 of the pull-down is not described on its own; also called His-EcTai4; His-tag EcTai4; source: E. coli BL21 (DE3), co-expressed with StTae4, purified (crystal, …)
B2: StTae4 (type VI amidase effector 4 from Salmonella typhimurium) (enzyme)
chain: MNRPSFNEAWLAFRKVNHSVADVGSIIGGNVGKNITGGYFQNACPIRMSYVLNATGFPIARNSPYAKVSGADNKFYIYRVNDMIDYLTHTMGKPDLIVNNPKQSDFIGKKGIIVVKGHGWSNARGHVTLWNGSICSDQCHLLNDPDNGPFVPEVGTLWILP
notes: Tae4, type VI amidase effector 4, S. Typhimurium, full length, amplified from genomic DNA; cloned into NcoI/XhoI of pET28at-plus (introduces an N-terminal TEV cleavage site); Se-Met-labelled protein was used for the crystal structure; The vector adds an N-terminal TEV cleavage site; the pull-down methods call the effectors 'native effector proteins'; source: E. coli BL21 (DE3), co-expressed with …

Columns and labels:
[1] = biological target: the molecule itself; assay: SAXS; purified complex in solution at 1, 3 and 5 mg/ml; theoretical curve of one tetramer of the crystal fitted to the experimental data, discrepancy 1.625
[2] = biological target: B1; assay: as above; conditions: both partners purified

Row | Binder | stoichiometry N [1] | stoichiometry N [2]
1 | B1 | 2 | 
2 | B2 |  | 2 Tae4 molecules per Tai4 homodimer

Source: article PMC3759425, “Insights into the Cross-Immunity Mechanism within Effector Families of Bacteria Type VI Secretion System from the Structure of StTae4-EcTai4 Complex” (PLoS ONE, 2013)
